Target: the molecule itself
Assay: crystal structure; Rv3722c (~40 mg/mL) co-crystallised with 5 mM L-glutamic acid or 10 mM L-kynurenine, sitting drop vapor diffusion at 17 °C

B1: Rv3722c (aspartate aminotransferase of Mycobacterium tuberculosis) (enzyme)
chain: SFDSLSPQELAALHARHQQDYAALQGMKLALDLTRGKPSAEQLDLSNQLLSLPGDDYRDPEGTDTRNYGGQHGLPGLRAIFAELLGIAVPNLIAGNNSSLELMHDIVAFSMLYGGVDSPRPWIQEQDGIKFLCPVPGYDRHFAITETMGIEMIPIPMLQDGPDVDLIEELVAVDPAIKGMWTVPVFGNPSGVTYSWETVRRLVQMRTAAPDFRLFWDNAYAVHTLTLDFPRQVDVLGLAAKAGNPNRPYVFASTSKITFAGGGVSFFGGSLGNIAWYLQYAGKKSIGPDKVNQLRHLRFFGDADGVRLHMLRHQQILAPKFALVAEVLDQRLSESKIASWTEPKGGYFISLDVLPGTARRTVALAKDVGIAVTEAGASFPYRKDPDDKNIRIAPSFPSVPDLRNAVDGLATCALLAATETLLNQGLASSAPNVR
notes: also called AspAT
B1: binds.
